Test results as given in the DeepSol protein solubility set.

Test: soluble on expression in E. coli; label from the status in PepcDB or PDB records

Sequence	soluble on expression in E. coli
MHNQAPIQRRKSTRIYVGNVPIGDGAPIAVQSMTNTRTTDVEATVNQIKALERVGADIVRVSVPTMDAAEAFKLIKQQVNVPLVADIHFDYRIALKVAEYGVDCLRINPGNIGNEERIRMVVDCARDKNIPIRIGVNAGSLEKDLQEKYGEPTPQALLESAMRHVDHLDRLNFDQFKVSVKASDVFLAVESYRLLAKQIDQPLHLGITEAGGARSGAVKSAIGLGLLLSEGIGDTLRVSLAADPVEEIKVGFDILKSLRIRSRGINFIACPTCSRQEFDVIGTVNALEQRLEDIITPMDVSIIGCVVNGPGEALVSTLGVTGGNKKSGLYEDGVRKDRLDNNDMIDQLEARIRAKASQLDEARRIDVQQVEK	soluble
MLGSPVAGAQVRVWQLDLDGQRKGREPLREAVTDDRGRFRIEMGAAHGNLLVESAGGETRELWSEEPLGLDPDVPLEAIIPLYIPVQHREIVVSPFTSVAAALVERRPVEPGRFHEAMQGVHALLGGHLGGIDILDAPVTPIDEPATQLTPGVRHGLLLGALSMLAGRMAEETGASVRGLNTMMLTAALREDARDESGLLDGVGPEGAIALGFCVDPPSGADTPLCRLSAQTLRQDLAETLAFHLLGSAQDGTGLSFGDGVVLANEVAQGTETALFGNVQPGNVGDERAPVITPLASPYYEESEDAIAFEDDLTPVHVRSEAARIDLSEVFENDCDREIHKHVDVLGAGDANPLRWRFAVKDDLAGFDVEDLLVQLRVPGVLAARPLAVTSVELPEGETAPGRVFEVFARERDAEELARVEGRYNIEIAATDRLGNTSPVLRGCWRHVPRAAPLWAGSFNAASGPGSFDERRLESNNLAPVLRGDQAPVLARLEVQNNTDEDVFLTLRADDIVGRYSATWTRSRVLLSEEEGMSDCLETGECFSAPPPDVVDEIIGLQPIPDSLVTLRVFDLATGVTPKCPNCRPNEVQIAAGGHFEVQAVVSNLAFLVPPSVNRTQIQEIQVGPIGAQVQLTGVDRRGYVHCEDTVPGSSLCRVRLSYQLFHALARATLQVDSLTISAVSSPLSTLAPRSPQPPLEGDNFTFSLPVSTAVTWTTEDASIPVSQ	not soluble
MGSDKIHHHHHHMENRITLRHLEAFRAIMVRKSVTGAAEMLEVTQPVVTRLIADLEERIALTLFTRTKGRLVPTPEAALLVKDVEQSLLSIERIANAATNIKSLKMGRLEIAASPNMALSFLPRAINSFTLAHPEAHVSMRMHSSPTVLDMVQRDQCDLGFAMFPARSTKSGNSETLVSAKMVAVVPKTHALATKRTLRPEHFEGERFISMMPLMESRMRIDSLMLSHGVRRHVNCETQTSAAVLQLVEAGVGISIIDPLTACGYTGTGVKFLNFEPVIRNDYSIVISQRNSSTLILKPFIDHAKREILNMVPAHLLIRS	not soluble
MKFIHLTDIHLMPPGQSVSGSDPIEKLSKVFEDIATWHSDAEFCVVSGDLADLGDRESYEWLRQRLAHFPVPVFLMLGNHDVRETFISVFPDHPRDANGFIQHAHTAGGARFLFLDTLTGGPDIHDGELCNDRLAWFAAELERAGDMPVYVFLHHPPFDIAIPYVDEIKLRQPDAFHAALQAGRNIRHIFYGHVHRTTYVNWRGYPFTSLPSTNHQVPLIPEREGQEHSAEPLAYGVATIEGDQFTLHVDHYLGK	not soluble
MSLKNQLGQLALEQAKTFGGKLEVQPKVDIKTKHDLSIAYTPGVASVSSAIAKDKTLAYDLTTKKNTVAVISDGTAVLGLGDIGPEAAMPVMEGKAALFKAFAGVDAIPIVLDTKDTEEIISIVKALAPTFGGINLEDISAPRCFEIEQRLIKECHIPVFHDDQHGTAIVVLAAIFNSLKLLKKSLDEVSIVVNGGGSAGLSITRKLLAAGATKVTVVDKFGIINEQEAAQLAPHHLDIAKVTNREFKSGTLEDALEGADIFIGVSAPGVLKAEWISKMAARPVIFAMANPIPEIYPDEALEAGAYIVGTGRSDFPNQINNVLAFPGIFRGALDARAKTITVEMQIAAAKGIASLVPDDALSTTNIIPDAFKEGVAEIVAKSVRSVVLKSEGHHHHHH	soluble
MLPLSLLKTAQNHPMLVELKNGETYNGHLVSCDNWMNINLREVICTSRDGDKFWRMPECYIRGSTIKYLRIPDEIIDMVKEEVVAKGRGRGGLQQQKQQKGRGMGGAGRGVFGGRGRGGIPGTGRGQPEKKPGRQAGKQ	soluble
MSLMYPLVLDLAADGIPVTVTCRVLGFSTQAFYKWRKAPLTQRDWDDAHLINAARDIHADDPAFGYRFIADELPGRGITAGENRVARLCSQERIWSIFAKKRGLNRRSGPPVHDDLVERQFSAQAANQVWLTDITEHRTNEGKLYLCAIKDVYSNRIVGYSMDSRMKSSLAVAALDHAVALRSPVATIVHSDRGSQFRSRKFVRALSRNGLQGSMGRVGACGDNAAMESFFALLQRNVLDRKRWSTRAELRLAIVTWIERTYHRRRRQRALGRLTPIEFELLRTSVATAAEGHHHHHH	not soluble
MSSVPKNKDELELAINSIFPKLMVDYRSIPESKARKVGVEGNVKGTFISVSDTVAYLIGWGKLVLKWHRLKSQNQHVDFPETGYKWNQLGLLAESFHEEYRDWKYSDLLVELEFTINEILLLISSLSDHELYGVAWYEQWTLGRMIQFNTSSPMKNMRTKVRRFNREFTLEHHHHHH	not soluble
MGSDKIHHHHHHMTESQALIWDETFPSLLLKGQGTTSFLHGQTTADVFAQKELDRIFMCCWLSTKGALKAVLEIRLSDDMAEIVIICGEINSIRDGFESVIFPADKVKLEVIDPIRRRQEINNNSSWKDSDFSWIDDNTFSIDGITKYKKATKEELEGWKIRQGIPSFDKEMNGETNPYELGLADTINLDKGCYLGQEAMAKFFRSKSLKYQLRYWEAYGENDNFQIGKKFFNTNKNEGYKKNVGVVTSSIRVDDNFFNGLALIKKTFLDHDFCFSENGDSITIKKPISFTNPF	not soluble
MSLTPFGVRSVVFDPDKGLVINGEHVPIRGVNNHHDLGALGAAFNVRAAERQLQLLQQMGANAIRMSHNPPAPELLELTDRMGLLVVDEVFDSWEMKKTPLDFHLIFPQWHEPDLRAMLRRDRNHPSIILWSVGNEVGEQYTGEAGAAIARRLHAIVHAEDPTRPATAAMNYASPEMPLPAALDVISLNYQGEGIRDTPEFEGTERIRKPPQYPAFHAKFPRKAILSSETASALSSRGVYLFPVSAQSSAPVRDGRGGDSVAHQVSAYELHAVDFGSSADKVFAALDRHPFVAGEFVWTGFDYLGEPTPYYSSRSSYSGILDLAGFPKDRYWLYQARWRPELPMAHLLPHWSWPGREGQVTPVHVFTSGDEAELFVNGVSQGRKRKAPLQYRLRWDAVVYQPGELRVQAYKHGRPWASDRVQTAGRATRMQLSADRNQIRGDGKDLSFITVRLLDADGRPAPTAGDRLRFRVEGAGELVATDNGDPTNLEAFVLPEREGHHHHHH	soluble
MVLMIVSGRSGSGKSVALRALEDMGFYCVDNLPVVLLPDLARTLADRQISAAVSIDVRNMPESPEIFEQAMNNLPGAFSPQLLFLDADRNTLIRRYSDTRRLHPLSSKNLSLESAIDKESDLLEPLRSRADLIVDTSEMSVHELAEMLRTRLLGKRERELTMVFESFGFKHGIPIDADYVFDVRFLPNPHWDPKLRPMTGLDKPVAAFLDRHTEVHNFIYQTRSYLELWLPMLETNNRSYLTVAIGCTGGKHRSVYIAEQLADYFRSRGKNVQSRHRTLEKRKT	not soluble
MGSDKIHHHHHHMKKLNLQCDLFNNNNLNFSDKGPLQDVFIDKKIIKEWQAKIITHQSPIFKSGHIDVNQYSLFESSSDELNASFNPIELTPLPLSFWRWPKAMHEGPAVYFVMDEIIDSGENIILYIGETISAEKRWKGEHDCKDYISSYSDSLHKANVKAKLSIRFWLDVPTKTKERRKLEQKLIQAWLPPFNKETREIWATPFTSQIN	not soluble
MKIFAVVVTYNRLALLKKVIDLLKRQTRQLDSIVIVNNGSTDGTKEWLEQEKNITLINQSNSGGAGGFETGVKYAYENEADWIWMMDDDVFPNIDCLEKLLGWTSISQCIQPRRYYSDDVEVNFEQWLDPITYSKFGYWQEKSFNNGKKFCAINVGCFEGMFVSKSIVNKIGFPDKRFFIAEDDTIYGFAASFYTNVILVSDAIMVRARRSSDRSVSPMYTYYACRNFHLVYESLNLLLDKKNRFLYIKYIYQFVHQIYLSIFLYDNKMKHLISVFRGFYDCFRKKNGATYLEHHHHHH	not soluble
MVHTPLNFKFSEKREEWNLRFCRNVGVSIVELVTADASSAYVRGLMAVNGSKVYSILPFISIDAEKAKKAKFPEDRMSGVRGKVIPSVLPEIKGETILDIGCGFGTLTMELAKNNPESQVYGIDLHDSLTGQAEMNAEVLGLPNVEFRTGSAYALPFEKDSIDAVTCFLMLHHLEDIKFALFEIKRVLKKGGSLTAVEPLAHQHHHGPQLSEAEWKELFEEAGFGTETENMEGAVVLRAVKRELEHHHHHH	not soluble
